Measurements from paper PMC5021521, “Coordinated recruitment of Spir actin nucleators and myosin V motors to Rab11 vesicle membranes” (eLife, 2016).

Columns and labels:
[1] = system: GST-Rab11a-Q70L; experiment: GST-pulldown from HEK293 lysates; assay type: binding; settings: N = 2; for pulldown by GST-Rab11a-Q70L in words, with Q1753R mutant MyoVa: HEK293 lysates with GFP-MyoVa-Q1753R in place of GFP-MyoVa-FL
Protocol: HEK293 cells were co-transfected with expression vectors encoding Myc-Spir-2-FL, mStrawberry-FMN2-FH2-FSI, eGFP-MyoVa-D-FL and eGFP-MyoVa-D-Q1753R, respectively. 24 hr post transfection, cells were lysed in lysis buffer (25 mM Tris-HCl pH 7.4, 150 mM NaCl, 5 mM MgCl2, 10% (v/v) glycerol, 0.1% (v/v) Nonidet P-40, 1 mM PMSF, protease inhibitor cocktail) and centrifuged at 20,000 x g, 4°C, 20 min to remove insoluble debris. For GST-pulldown assays 65 µg GST-Rab11a-Q70L protein (25 µg GST control) was coupled to GSH-Sepharose 4B beads (1:1 suspension) for 1 hr, 4°C on a rotating wheel. Beads were washed twice with pulldown buffer (25 mM Tris-HCl pH 7.4, 150 mM NaCl, 5 mM MgCl2, 10% (v/v) glycerol, 0.1% (v/v) Nonidet P-40) and subsequently incubated with the cell lysates for 2 hr at 4°C on a rotating wheel. Beads were washed four times with pulldown buffer and bound proteins were eluted with 1x Laemmli buffer and denatured at 95°C for 10 min, then were analyzed by immunoblotting.

[2] = system: mStrawberry-Rab11a; experiment: Colocalization with Rab11 in HeLa cells, Pearson's correlation coefficient; assay type: cell-based, Mus musculus
Protocol: (§1) HeLa cells were seeded on microscope cover glasses and transfected with Myc-epitope-tagged Spir-2 proteins and fluorescently-tagged MyoV and Rab11 proteins as described above. Cells were fixed with paraformaldehyde (3.7% in 1x PBS) for 20 min at 4°C and subsequently permeabilized using 0.2% Triton X-100 (in 1x PBS) for 3.5 min, room temperature. Cells were incubated with anti-c-Myc antibody (9E10, mouse monoclonal, 2 µg/ml, Santa Cruz Biotechnology; RRID: AB_627268) for 1 hr at room temperature and conjugated anti-mouse secondary antibodies (Cy5; from donkey, 3.25 µg/ml, Dianova (RRID: AB_2340820) and TRITC; from donkey, 3.125 µg/ml, Dianova (RRID: AB_2340767)) for 1 hr at room temperature avoiding exposure to light. Finally, cells were mounted on microscope slides with Mowiol and analyzed with a Leica AF6000LX fluorescence microscope, equipped with a Leica HCX PL APO 63x/1.3 GLYC objective and a Leica DFC350 FX digital camera (1392 × 1040 pixels, 6.45 × 6.45 µm pixel size). 3D stacks were recorded and processed with the Leica deconvolution software module. In case of the MyoVa autoregulation/activation experiments, we quantified the MyoVa expression levels. […] In order to clearly distinguish between vesicular and cytoplasmic MyoVa localization, we imaged either high or low expressing cells and determined the sum of pixel gray values per cell as a measure for the MyoVa expression levels. Based on that, we only used cells for the autoregulation analysis having a sum of pixel gray values less than 20 × 10^6 for the expression of GFP-MyoVa-D-FL. Images were recorded using the Leica LASX software and further processed with Adobe Photoshop and subsequently assembled with Adobe Illustrator.
The extent of colocalization of Rab11, Spir-2 and MyoVa was analyzed using the ImageJ (V2.0.0) plug-in Coloc 2. Here, the colocalization rate is indicated by the Pearson’s Correlation Coefficient (PCC) as a statistical measure to unravel a linear correlation between the intensity of different fluorescent signals. […] To take the noise of each image into account and to gain an objective evaluation of PCC significance, a Costes significance test was performed. Therefore, the pixels in one image were scrambled randomly and the correlation with the other (unscrambled) image was measured. […] Statistical data analysis was performed using SPSS 22 (IBM, Armonk, NY, USA).

[3] = system: GFP-MyoVb-GTD; experiment: Co-immunoprecipitation from HEK293 cells; assay type: binding, Homo sapiens; settings: anti-Myc co-IP, HEK293, immunoblot
Protocol: HEK293 cells were transfected with expression vectors encoding Myc-tagged Spir proteins and GFP-tagged myosin Va and myosin Vb fragments. 48 hr post transfection, cells were lysed in lysis buffer (25 mM Tris-HCl pH 7.4, 150 mM NaCl, 5 mM MgCl2, 10% (v/v) glycerol, 0.1% (v/v) Nonidet P-40, 1 mM Phenylmethylsulfonylfluorid (PMSF; Sigma-Aldrich), protease inhibitor cocktail (complete mini, EDTA-free; Roche, Penzberg, Germany)) and centrifuged at 20,000 x g, 4°C, 20 min to remove insoluble debris. The clarified supernatant was incubated with 4 µg anti-c-Myc antibody (9E10, mouse monoclonal; Santa Cruz Biotechnology; RRID: AB_627268) for 1 hr on ice. Subsequently, 40 µl Protein G-Agarose beads (1:1 suspension; Roche) were added and incubated for 2 hr at 4°C on a rotating wheel. Beads were washed with pulldown buffer (25 mM Tris-HCl pH 7.4, 150 mM NaCl, 5 mM MgCl2, 10% (v/v) glycerol, 0.1% (v/v) Nonidet P-40). Bound proteins were eluted with 1x Laemmli buffer and denatured for 10 min at 95°C, then analyzed by immunoblotting.

[4] = system: HeLa cells; experiment: Subcellular localization by fluorescence microscopy; assay type: cell-based
Protocol: as §1

Straw-FMN2-FH2-FSI: mStrawberry-tagged C-terminal formin-2, aa 1135 - 1578
pulldown by GST-Rab11a-Q70L in words ([1]; HEK293 lysates over-expressing Myc-Spir-2, Straw-FMN2-FH2-FSI and GFP-MyoVa-FL): able to pull down | pulldown by GST-Rab11a-Q70L in words, with Q1753R mutant MyoVa [1]: Only faint

GFP-MyoVa-Q1753R: eGFP-tagged full-length MyoVa with Q1753R mutation, which disrupts interaction with Rab11
pulldown by GST-Rab11a-Q70L in words, with Q1753R mutant MyoVa [1]: but not the GFP-MyoVa-Q1753R mutant

B1: Myc-Spir2-SB-FYVE: Myc-hs-Spir2-SB-FYVE aa 438 - 714, lacks the MyoV binding motif (protein)
chain: DRSFSEHDLAQLRSEVASGLQSATHPPGGTEPPRPRAGSAHVWRPGSRDQGTCPASVSDPSHPLLSNRGSSGDRPEASMTPDAKHLWLEFSHPVESLALTVEEVMDVRRVLVKAEMEKFLQNKELFSSLKKGKICCCCRAKFPLFSWPPSCLFCKRAVCTSCSIKMKMPSKKFGHIPVYTLGFESPQRVSAAKTAPIQRRDIFQSLQGPQWQSVEEAFPHIYSHGCVLKDVCSECTSFVADVVRSSRKSVDVLNTTPRRSRQTQSLYIPNTRTLDFK
modifications: left off: Myc epitope, end not stated, kept
PCC ([2]; GFP-MyoVa-CC-GTD + mStraw-Rab11 + Myc-Spir2-SB-FYVE (first block, r34), cell 1): 0.63 | PCC ([2]; GFP-MyoVa-CC-GTD + mStraw-Rab11 + Myc-Spir2-SB-FYVE (first block, r34), cell 2): 0.74 | PCC ([2]; GFP-MyoVa-CC-GTD + mStraw-Rab11 + Myc-Spir2-SB-FYVE (first block, r34), cell 3): 0.59 | PCC ([2]; GFP-MyoVa-CC-GTD + mStraw-Rab11 + Myc-Spir2-SB-FYVE (first block, r34), cell 4): 0.23 | Pearson's correlation coefficient (PCC), mean ([2]; GFP-MyoVa-CC-GTD + mStraw-Rab11 + Myc-Spir2-SB-FYVE (first block, r34), mean of 4 cells): 0.5475 | colocalization with Rab11 in words ([2]; co-expression of Spir-2-SB-FYVE, MyoVa-CC-GTD and Rab11a, HeLa cells): significant reduction

B2: 1 423: N-terminal Spir-2 deletion mutant (protein)
chain: ARAGSCGGAAAGAGRPEPWELSLEEVLKAYEQPLNEEQAWAVCFQGCRGLRGSPGRRLRDTGDLLLRGDGSVGAREPEAAEPATMVVPLASSEAQTVQSLGFAIYRALDWGLDESEERELSPQLERLIDLMANNDSEDSGCGAADEGYGGPEEEEEAEGVPRSVRTFAQAMRLCAARLTDPRGAQAHYQAVCRALFVETLELRAFLARVREAKEMLQKLREDEPHLETPRAELDSLGHTDWARLWVQLMRELRRGVKLKKVQEQEFNPLPTEFQLTPFEMLMQDIRARNYKLRKVMVDGDIPPRVKKDAHELILDFIRSRPPLKQVSERRLRPLPPKQRSLHEKILEEIKQERRLRPVRGEGWAARGFGSLPCILNACSGDAKSTSCINLSVTDAGGSAQRPRPRVLLKAPTLAEMEEMNTS
modifications: left off: Myc epitope, end not stated, kept
notes: N-terminal Spir-2 deletion mutant
co-precipitation / interaction with MyoVb-GTD in words [3]: show myosin V co-precipitation

B3: Spir-1: Myc-hs-Spir1 aa 2 - 757, full-length (protein)
chain: MANTVEADGSKDEGYEAADEGPEDEDGEKRSISAIRSYQDVMKICAAHLPTESEAPNHYQAVCRALFAETMELHTFLTKIKSAKENLKKIQEMEKGDESSTDLEDLKNADWARFWVQVMRDLRNGVKLKKVQQRQYNPLPIEYQLTPYEMLMDDIRCKRYTLRKVMVNGDVPPRLKKSAHEVILDFIRSRPPLNPVSARKLKPTPPRPRSLHERILEEIKAERKLRPVSPEEIRRSRLVRPLSMSHSFDLSDVTTPESPKNVGESSMVNGGLTSQTKENGLSAAQQGSAQRKRLLKAPTLAELDSSDSEEEKSLHKSTSSSSASPSLYEDPVLEAMCSRKKPPKFLPISSTPQPERRQPPQRRHSIEKETPTNVRQFLPPSRQSSRSLEEFCYPVECLALTVEEVMHIRQVLVKAELEKYQQYKDVYTALKKGKLCFCCRTRRFSFFTWSYTCQFCKRPVCSQCCKKMRLPSKPYSTLPIFSLGPSALQRGESCSRSEKPSTSHHRPLRSIARFSTKSRSVDKSDEELQFPKELMEDWSTMEVCVDCKKFISEIISSSRRSLVLANKRARLKRKTQSFYMSSAGPSEYCPSERTINEI
co-precipitation / interaction with MyoVb-GTD in words [3]: did interact with the GFP-MyoVb-GTD

B4: Myc-Spir-2-KIND-WH2: Myc-hs-Spir2-KIND-WH2 aa 2 - 410 (protein)
chain: ARAGSCGGAAAGAGRPEPWELSLEEVLKAYEQPLNEEQAWAVCFQGCRGLRGSPGRRLRDTGDLLLRGDGSVGAREPEAAEPATMVVPLASSEAQTVQSLGFAIYRALDWGLDESEERELSPQLERLIDLMANNDSEDSGCGAADEGYGGPEEEEEAEGVPRSVRTFAQAMRLCAARLTDPRGAQAHYQAVCRALFVETLELRAFLARVREAKEMLQKLREDEPHLETPRAELDSLGHTDWARLWVQLMRELRRGVKLKKVQEQEFNPLPTEFQLTPFEMLMQDIRARNYKLRKVMVDGDIPPRVKKDAHELILDFIRSRPPLKQVSERRLRPLPPKQRSLHEKILEEIKQERRLRPVRGEGWAARGFGSLPCILNACSGDAKSTSCINLSVTDAGGSAQRPRPRVLLK
modifications: left off: Myc epitope, end not stated, kept
subcellular localization in words ([4]; co-expression of eGFP-MyoVa-FL and N-terminal Spir-2 fragment): both cytosolic | subcellular localization in words ([4]; single expression): even cytoplasmic and nuclear localization

B5: 398 714: C-terminal Spir-2 deletion mutant (protein)
chain: GSAQRPRPRVLLKAPTLAEMEEMNTSEEEESPCGEVTLKRDRSFSEHDLAQLRSEVASGLQSATHPPGGTEPPRPRAGSAHVWRPGSRDQGTCPASVSDPSHPLLSNRGSSGDRPEASMTPDAKHLWLEFSHPVESLALTVEEVMDVRRVLVKAEMEKFLQNKELFSSLKKGKICCCCRAKFPLFSWPPSCLFCKRAVCTSCSIKMKMPSKKFGHIPVYTLGFESPQRVSAAKTAPIQRRDIFQSLQGPQWQSVEEAFPHIYSHGCVLKDVCSECTSFVADVVRSSRKSVDVLNTTPRRSRQTQSLYIPNTRTLDFK
modifications: left off: Myc epitope, end not stated, kept
notes: C-terminal Spir-2 deletion mutant
co-precipitation / interaction with MyoVb-GTD in words [3]: show myosin V co-precipitation
